This note sets out measurements from publication PMC5510646 (The Biochemical journal, 2017).

Positions count from the first letter of the chain named. Names may count otherwise.

Sequences and labels used below:
B1: Grem2 K66A/K69A (natural protein)
chain: RKNRPAGAIPSPYKDGSSNNSERWHHQIKEVLASSQEALVVTERAYLASDWCKTQPLRQTVSEEGCRSRTILNRFCYGQCNSFYIPRHVKKEEDSFQSCAFCKPQRVTSVIVELECPGLDPPFRIKKIQKVKHCRCMSVNLSDSDKQ
B2: Grem2 K111A/K112A (natural protein)
chain: B1 chain with A45K, A48K, K90A, K91A
B3: Grem2 K151A/K153A (natural protein)
chain: B1 chain with A45K, A48K, K130A, K132A
B4: Grem2 K147A/K148A (natural protein)
chain: B1 chain with A45K, A48K, K126A, K127A
B5: Recombinant mature BMP2 (ligand, UniProt P12643 283-396, looked up)
chain: QAKHKQRKRLKSSCKRHPLYVDFSDVGWNDWIVAPPGYHAFYCHGECPFPLADHLNSTNHAIVQTLVNSVNSKIPKACCVPTELSAISMLYLDENEKVVLKNYQDMVVEGCGCR

Series [1] concerns the molecule itself. Put plainly: SEC. (In general: SEC sorts molecules by how far they enter the pores of the column.)
The target in series [2] is T1, Grem2 K147A/K148A/K151A/K153A (UniProt O88273 22-168, K147A | K148A | K151A | K153A).
T1 sequence: B1 chain with A45K, A48K, K126A, K127A, K130A, K132A
The series is described as follows: SPR. For orientation: In SPR one partner is held on a chip, and binding of the other changes the refractive index at the surface.

For series [3], the target named is T2, Grem2 K66A/K69A/K147A/K148A (UniProt O88273 22-168, K66A | K69A | K147A | K148A).
T2 sequence: B1 chain with K126A, K127A
Put plainly: SPR.

Series [4] deals with B2. The series is described as follows: SPR.
Series [5] addresses B4. The series is described as follows: SPR.
In series [6] the target is B1. The series is described as follows: SPR.
The target in series [7] is B3. Put plainly: SPR.
The target in series [8] is T3, Grem2 K111A/K112A/K151A/K153A (UniProt O88273 22-168, K111A | K112A | K151A | K153A).
T3 sequence: B1 chain with A45K, A48K, K90A, K91A, K130A, K132A
The series is described as follows: SPR.

Series [9] deals with T4, Gremlin-2 wild type (UniProt O88273 22-168).
T4 sequence: B1 chain with A45K, A48K
The series is described as follows: SPR.

Regarding B1, the stoichiometry N (usually the number of molecules, sites or subunits per partner or assembly) in series [1] amounted to 2.

For B2, the “stoichiometry N” value in series [1] is 2.

Take B3: the “stoichiometry N” value in series [1] is 2.

Take B4: the “stoichiometry N” value in series [1] is 2.

Consider B5, for which the Kd (commonly the free concentration of one partner at which half of the binding sites on the other are occupied at equilibrium, for simple one-to-one binding) in series [2] is 4.4 nM; in [3] it was 5.66 nM; in series [4], 1.77 nM; in series [5], 1.98 nM; in series [6], 2.4 nM; in series [7], 1.3 nM. Further, the values for the Kd in series [8] and in series [9] were 2.11 nM and 1.42 nM, respectively.
